Measurements as given in the Immune Epitope Database (IEDB).
pIC50: −log10 of the molar value.

Molecular target: HLA-A*68:02
Experiment: IEDB peptide-MHC binding, purified MHC/competitive/radioactivity; ≥ and ≤ were set here for values at or beyond the usual limits of such assays
Conditions: source organism: Mammarenavirus guanaritoense

Row | Sequence | pIC50
1 | WSAIFFTTSL | 6.52

Same assay, conditions: source organism: Mammarenavirus lassaense

Row | Sequence | pIC50
2 | CNYSKYWYL | 5.38

Same assay, conditions: source organism: Mammarenavirus whitewaterense

Row | Sequence | pIC50
3 | FSAVISGSV | 8.59
4 | VCFWSTLFYV | 6.28

Same assay, conditions: source organism: SARS-CoV1

Row | Sequence | pIC50
5 | FLVLIMLII | 5.59

Same assay, conditions: source organism: Vaccinia virus WR

Row | Sequence | pIC50
6 | ALYYVHSLL | 6.22
7 | CAVIPFDDIV | 6.86
8 | CTMERTNDLT | 8.06
9 | CTNDIYCDEI | 6.72
10 | CVDHPFIYVI | 6.10
11 | DIKYISRDEL | 6.49
12 | DIPTFNSLNT | 6.05
13 | DISSFYWSL | 7.55
14 | EQGDIALAL | 6.10
15 | ETDDDGNYPL | 7.57
16 | HTYHLENDKI | 6.55
17 | IAGGVCYYLL | 6.57
18 | IASGQRCHFI | 5.38
19 | ITVGMLIYSM | 6.21
20 | IVNTTYDFLA | 6.00
21 | IVSRSSRGV | 5.99

Row | Sequence | pIC50
22 | LTHFNNNENV | 7.96
23 | LTSVDIETA | 5.91
24 | MVEYLENQL | 6.23
25 | NAVTTNNLL | 5.40
26 | SICLDYIIV | 5.53
27 | STVDVRNIVT | 6.32
28 | SVDIETAIRA | 6.08
29 | SVDVDIYDA | 6.46
30 | TIILNKIVQL | 5.57
31 | TTPLISFFGL | 6.70
32 | TTTFITVLT | 7.48
33 | YALEPRKEI | 6.15
34 | YAVLSEYET | 6.61
35 | YAVLSEYETM | 5.38
36 | YVVIVENDNV | 7.00

Molecular target: HLA-A*02:02
Experiment: as above
Conditions: source organism: Mammarenavirus brazilense

Row | Sequence | pIC50
37 | KNATWCLEV | 5.79
38 | MSPALFFTFL | 6.26
39 | SNPNLFWAV | 6.77

Same assay, conditions: source organism: Mammarenavirus choriomeningitidis

Row | Sequence | pIC50
40 | MSCDDVVFGI | 5.98
41 | YCNYSKFWYL | 5.95

Same assay, conditions: source organism: Mammarenavirus guanaritoense

Row | Sequence | pIC50
42 | TNAEFTFQL | 6.39
43 | WSAIFFTTSL | 5.70

Same assay, conditions: source organism: Mammarenavirus lassaense

Row | Sequence | pIC50
44 | CNYSKYWYL | 5.44

Same assay, conditions: source organism: Mammarenavirus whitewaterense

Row | Sequence | pIC50
45 | FSAVISGSV | 7.32
46 | GLLQFIVFL | 9.22
47 | VCFWSTLFYV | 6.46

Same assay, conditions: source organism: SARS-CoV1

Row | Sequence | pIC50
48 | FLVLIMLII | 5.79

Same assay, conditions: source organism: Vaccinia virus WR

Row | Sequence | pIC50
49 | ALYYVHSLL | 7.59
50 | CAVIPFDDIV | 5.53
51 | CTMERTNDLT | 5.39
52 | CTNDIYCDEI | 5.61
53 | CVDHPFIYVI | 6.02
54 | DIKYISRDEL | 5.59
55 | DIPTFNSLNT | 5.69
56 | DISSFYWSL | 6.41
57 | EQGDIALAL | 6.15
58 | ETDDDGNYPL | 5.44
59 | HLTENNLYI | 6.94
60 | HTYHLENDKI | 5.75
61 | IAGGVCYYLL | 5.34
62 | IASGQRCHFI | 6.28
63 | IASILSLET | 5.44
64 | ITDDSDDYEL | 6.16
65 | ITVGMLIYSM | 7.33
66 | IVNTTYDFLA | 5.90

Row | Sequence | pIC50
67 | IVSRSSRGV | 6.58
68 | KIDKLTFQI | 6.85
69 | KQIMECSRML | 7.26
70 | LTHFNNNENV | 6.04
71 | LTSVDIETA | 5.31
72 | MVEYLENQL | 6.46
73 | NAVTTNNLL | 5.73
74 | SICLDYIIV | 5.84
75 | STVDVRNIVT | 5.51
76 | SVDIETAIRA | 5.55
77 | SVDVDIYDA | 5.92
78 | TIILNKIVQL | 5.75
79 | TTPLISFFGL | 5.30
80 | TTTFITVLT | 5.61
81 | YALEPRKEI | 5.43
82 | YAVLSEYET | 5.75
83 | YAVLSEYETM | 6.80
84 | YVVIVENDNV | 5.63

Molecular target: HLA-A*02:06
Experiment: as above
Conditions: source organism: Mammarenavirus brazilense

Row | Sequence | pIC50
85 | KNATWCLEV | 5.64
86 | MSPALFFTFL | 6.08
87 | SNPNLFWAV | 7.46

Same assay, conditions: source organism: Mammarenavirus choriomeningitidis

Row | Sequence | pIC50
88 | MSCDDVVFGI | 6.60
89 | YCNYSKFWYL | 5.97

Same assay, conditions: source organism: Mammarenavirus guanaritoense

Row | Sequence | pIC50
90 | TNAEFTFQL | 5.44
91 | WSAIFFTTSL | 5.85

Same assay, conditions: source organism: Mammarenavirus lassaense

Row | Sequence | pIC50
92 | CNYSKYWYL | 5.57

Same assay, conditions: source organism: Mammarenavirus whitewaterense

Row | Sequence | pIC50
93 | FSAVISGSV | 6.79
94 | GLLQFIVFL | 7.92
95 | VCFWSTLFYV | 5.95

Same assay, conditions: source organism: SARS-CoV1

Row | Sequence | pIC50
96 | FLVLIMLII | 5.87

Same assay, conditions: source organism: Vaccinia virus WR

Row | Sequence | pIC50
97 | ALYYVHSLL | 5.49
98 | CAVIPFDDIV | 6.74
99 | CTMERTNDLT | 6.00
100 | CTNDIYCDEI | 5.32
101 | CVDHPFIYVI | 5.79
102 | DIKYISRDEL | 5.69
103 | DIPTFNSLNT | 7.35
104 | DISSFYWSL | 5.40
105 | EQGDIALAL | 5.32
106 | ETDDDGNYPL | 5.94
107 | HLTENNLYI | 5.74
108 | HTYHLENDKI | 5.70
109 | IAGGVCYYLL | 6.18
110 | IASGQRCHFI | 6.59
111 | IASILSLET | 6.50
112 | ITDDSDDYEL | 7.31
113 | ITVGMLIYSM | 7.01
114 | IVNTTYDFLA | 6.02

Row | Sequence | pIC50
115 | IVSRSSRGV | 6.32
116 | KIDKLTFQI | 7.38
117 | KQIMECSRML | 7.22
118 | LTHFNNNENV | 6.00
119 | LTSVDIETA | 6.51
120 | MVEYLENQL | 5.40
121 | NAVTTNNLL | 6.69
122 | SICLDYIIV | 6.16
123 | STVDVRNIVT | 5.80
124 | SVDIETAIRA | 5.99
125 | SVDVDIYDA | 6.02
126 | TIILNKIVQL | 7.52
127 | TTPLISFFGL | 5.47
128 | TTTFITVLT | 5.96
129 | YALEPRKEI | 5.39
130 | YAVLSEYET | 5.88
131 | YAVLSEYETM | 5.92
132 | YVVIVENDNV | 7.22
